Results on seven molecules are retold here after patent US20170362324A1 (Biogen, published 2017).

Assay [1] has as its target T1, human soluble αvβ5 protein (extracellular domains of human αv and β5 integrin subunits) (human, UniProt P06756 31-992; P18084 24-719).
T1 construct: also called biotin-αvβ5; hsαvβ5
The assay is described as follows: ELISA, Fab blocking of 2 nM soluble αvβ5 binding to immobilized human plasma vitronectin. As to the method:
Fab fragments of the four constructs of Example 6 were generated from the corresponding IgG1(N297Q) versions by digestion with papain. The ability of each Fab to block 2 nM soluble αvβ5 binding to immobilized human plasma vitronectin was determined by ELISA.
On the technique in general: In an ELISA, binding on a coated surface is turned into a signal by an enzyme label.

Assay [2] addresses T2, human αvβ5 expressed on BaF3 cells (stably transfected with human αv and β5 subunits) (human, UniProt P06756 31-1048; P18084 24-799). The experiment in a line: cell-based or functional assay.
Assay [3] addresses T1, human soluble αvβ5 protein …. The assay is described as follows: ELISA, inhibition of soluble αvβ5 binding to coated human plasma vitronectin. As to the method:
Vitronectin Inhibition ELISA: 96-well microtiter plates were coated with 5 μg/ml purified human plasma vitronectin diluted in PBS (50 μl/well) at 4° C. overnight. After the coating solution was removed, the plates were blocked with 300 μl/well of 1% BSA/TBS at 25° C. for 1 hr. The plate was washed with wash buffer (0.05% Tween-20 in TBS containing 1 mM CaCl₂ and 1 mM MgCl₂), and dilutions of humanized antibodies mixed with 1 nM soluble αvβ5 protein in TBS containing 1% BSA, 1 mM CaCl₂ and 1 mM MgCl₂ were added (50 μl/well) and incubated at 25° C. for 1 hr. The plate was washed 4 times with wash buffer in an automated plate washer and incubated sequentially with 50 μl/well of the anti-beta5 monoclonal antibody 15F11 (at 0.5 ug/mL) in for 1 hr at 25° C. in TBS containing 1% BSA, 1 mM CaCl₂ and 1 mM MgCl₂. After washing the plate 4 times with wash buffer, 100 μl/well of a 1:5000 dilution of a peroxidase-conjugated goat anti-mouse antibody in TBS containing 1% BSA, 1 mM CaCl₂ and 1 mM MgCl₂ were added and incubated for 1 hr at 25° C. Bound protein was detected using the TMB substrate and indicated by the absorbency measured at 450 nm.
In parallel, the humanized ALULA antibodies were tested in two adhesion assays. One measured the ability of each antibody to inhibit the binding of soluble αvβ5 to purified human plasma vitronectin. In the other assay, the murine BaF3 cell line was stably transfected with human αv and β5 subunits, and the adhesion of these cells to vitronectin was determined using a fluorescence endpoint.

The target is the same in assay [4]. The experiment in a line: ELISA, biotin-αvβ5 on streptavidin plate, unpurified antibody. As to the method:
Solid-Phase αvβ5 Binding Assay (ELISA): A 96-well microtiter plate was precoated with streptavidin (Thermo Scientific Reacti-Bind StreptAvidin Coated High Binding Capacity plate) was used. Biotinylated soluble αvβ5 protein (2 μg/mL) in TBS with 1% BSA was added to the wells, and the plate was incubated for 1 hr at 25° C. The plate was washed with wash buffer (0.05% Tween-20 in PBS), and purified humanized ALULA antibody in TBS containing 1% BSA, 1 mM CaCl2, and 1 mM MgCl2 were added (50 μl/well). The plate was incubated for 1 hr at 25° C., washed, and then incubated for 1 hr with 50 μl/well of […] goat anti-human secondary antibody. Bound antibody was detected using 3,3′,5,5′-tetramethylbenzidine (TMB). Binding was indicated by the absorbency measured at 450 nm.
(§1) Screening of all combinations of heavy chain versions VH0, VH1, VH2, VH3, VH4, or VH5, with light chains VL0, VL1, VL2, or VL3 was carried out using unpurified proteins in conditioned cell media. The binding of each construct to biotin-conjugated human αvβ5 protein was determined using a solid-phase binding assay (ELISA) and by FACS, and the ability of each construct to block ligand binding was determined using a vitronectin cell adhesion assay (Table 1).

Assay [5] shares this target. The experiment in a line: competition ELISA against 1 nM murine ALULA on coated soluble human αvβ5. As to the method:
Competition ELISA: A 96-well microtiter plate was coated with 50 μl/well of 5 μg/mL soluble human αvβ5 protein at 4° C. overnight. The plate was washed with wash buffer (0.05% Tween-20 in PBS) four times in an automated plate washer. 300 μl/well of 1% BSA in PBS was added and incubated for 1 hr at 25° C. to block nonspecific binding. The plate was washed as above, and dilutions of humanized antibodies mixed with 1 nM murine ALULA in PBS containing 1% BSA, were added (50 μl/well). The plate was incubated for 1 hr at 25° C., washed, and then incubated for 40 minutes with 100 μl/well of […] goat anti-mouse antibody. Bound antibody was detected using 3,3′,5,5′-tetramethylbenzidine (TMB). Binding was indicated by the absorbency measured at 450 nm.
The binding of each construct to soluble, purified human αvβ5 protein was determined by a competition ELISA with murine ALULA (FIG. 4). […] The remaining constructs behaved similarly, with version H4/L2 showing the lowest IC50 value in this assay.

Assay [6] has as its target T2, human αvβ5 expressed on BaF3 cells …. The assay is described as follows: cell-based or functional assay. This is another data set of the same source.
Assay [7] has the same target. The experiment in a line: FACS on αvβ5-BaF3 cells, unpurified antibody. As to the method: FACS Binding Assay: Cells were washed one time in PBS, and then resuspended in FACS buffer (1×PBS, 1% BSA, 1 mM CaCl₂, and 1 mM MgCl₂). 1×10⁶ cells were then incubated on ice for 1 hr in FACS buffer containing the test antibody in a total volume of 50 μl. After incubation, the cells were washed two times with ice cold FACS buffer, resuspended in 50 μl of FACS buffer containing 3 μg/ml goat anti-mouse IgG AlexaFluor488 (Jackson ImmunoResearch), and incubated on ice for 30 min. The cells were then washed twice with ice cold FACS buffer and fixed in 1% PFA overnight. Cell aggregates were removed by filtering through 40 μm filter plates (Millipore) and binding of the labeled secondary antibody was monitored by flow cytometry using a FACS Calibur (BD Biosciences).
as §1

Where two headings read alike, the source gives them in different places.

T1 sequence (P06756 31-992 limits assumed, chain 1 of 2): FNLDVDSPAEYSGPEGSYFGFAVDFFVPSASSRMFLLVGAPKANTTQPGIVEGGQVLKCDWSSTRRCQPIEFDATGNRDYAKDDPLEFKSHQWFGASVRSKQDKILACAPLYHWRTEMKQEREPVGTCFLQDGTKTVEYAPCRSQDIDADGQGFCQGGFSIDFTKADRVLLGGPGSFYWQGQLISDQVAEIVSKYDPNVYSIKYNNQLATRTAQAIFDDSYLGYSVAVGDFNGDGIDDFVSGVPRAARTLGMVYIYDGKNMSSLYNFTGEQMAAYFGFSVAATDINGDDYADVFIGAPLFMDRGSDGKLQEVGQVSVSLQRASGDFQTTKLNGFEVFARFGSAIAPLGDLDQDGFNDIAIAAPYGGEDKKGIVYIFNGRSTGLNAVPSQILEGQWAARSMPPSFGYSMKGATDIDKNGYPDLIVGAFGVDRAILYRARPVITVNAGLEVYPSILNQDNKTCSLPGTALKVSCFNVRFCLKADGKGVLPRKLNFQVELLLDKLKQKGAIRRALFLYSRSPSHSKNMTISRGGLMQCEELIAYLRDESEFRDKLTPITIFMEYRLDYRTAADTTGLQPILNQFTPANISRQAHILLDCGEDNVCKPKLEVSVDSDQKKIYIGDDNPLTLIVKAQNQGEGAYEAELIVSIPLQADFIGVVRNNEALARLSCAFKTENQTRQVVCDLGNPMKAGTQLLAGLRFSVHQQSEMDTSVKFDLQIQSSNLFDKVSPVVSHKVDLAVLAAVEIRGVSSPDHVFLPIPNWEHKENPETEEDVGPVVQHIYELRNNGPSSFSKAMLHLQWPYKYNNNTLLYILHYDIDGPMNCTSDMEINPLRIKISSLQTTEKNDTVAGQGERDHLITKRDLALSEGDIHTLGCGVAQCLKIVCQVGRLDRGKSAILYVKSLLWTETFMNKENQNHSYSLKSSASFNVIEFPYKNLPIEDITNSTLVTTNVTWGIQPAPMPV
T1 sequence (P18084 24-719 limits assumed, chain 2 of 2): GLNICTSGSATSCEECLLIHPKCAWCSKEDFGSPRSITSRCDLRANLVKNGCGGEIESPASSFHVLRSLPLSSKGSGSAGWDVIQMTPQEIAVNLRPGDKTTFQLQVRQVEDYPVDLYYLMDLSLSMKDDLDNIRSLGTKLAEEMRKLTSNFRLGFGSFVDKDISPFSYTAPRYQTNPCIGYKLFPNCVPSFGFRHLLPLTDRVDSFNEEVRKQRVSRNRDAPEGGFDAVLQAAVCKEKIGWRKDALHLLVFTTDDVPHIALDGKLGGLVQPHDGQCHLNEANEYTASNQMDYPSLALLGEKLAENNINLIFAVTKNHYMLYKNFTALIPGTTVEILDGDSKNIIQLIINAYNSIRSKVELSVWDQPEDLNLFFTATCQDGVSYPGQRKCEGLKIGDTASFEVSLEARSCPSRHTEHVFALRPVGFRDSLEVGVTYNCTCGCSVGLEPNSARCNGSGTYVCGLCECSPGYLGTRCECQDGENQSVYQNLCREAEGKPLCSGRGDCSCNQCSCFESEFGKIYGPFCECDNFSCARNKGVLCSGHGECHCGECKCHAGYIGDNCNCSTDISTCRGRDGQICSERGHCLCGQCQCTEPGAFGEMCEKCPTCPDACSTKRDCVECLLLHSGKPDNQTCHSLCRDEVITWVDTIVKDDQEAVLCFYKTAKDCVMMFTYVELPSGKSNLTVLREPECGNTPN
T2 sequence (P06756 31-1048 limits assumed, chain 1 of 2): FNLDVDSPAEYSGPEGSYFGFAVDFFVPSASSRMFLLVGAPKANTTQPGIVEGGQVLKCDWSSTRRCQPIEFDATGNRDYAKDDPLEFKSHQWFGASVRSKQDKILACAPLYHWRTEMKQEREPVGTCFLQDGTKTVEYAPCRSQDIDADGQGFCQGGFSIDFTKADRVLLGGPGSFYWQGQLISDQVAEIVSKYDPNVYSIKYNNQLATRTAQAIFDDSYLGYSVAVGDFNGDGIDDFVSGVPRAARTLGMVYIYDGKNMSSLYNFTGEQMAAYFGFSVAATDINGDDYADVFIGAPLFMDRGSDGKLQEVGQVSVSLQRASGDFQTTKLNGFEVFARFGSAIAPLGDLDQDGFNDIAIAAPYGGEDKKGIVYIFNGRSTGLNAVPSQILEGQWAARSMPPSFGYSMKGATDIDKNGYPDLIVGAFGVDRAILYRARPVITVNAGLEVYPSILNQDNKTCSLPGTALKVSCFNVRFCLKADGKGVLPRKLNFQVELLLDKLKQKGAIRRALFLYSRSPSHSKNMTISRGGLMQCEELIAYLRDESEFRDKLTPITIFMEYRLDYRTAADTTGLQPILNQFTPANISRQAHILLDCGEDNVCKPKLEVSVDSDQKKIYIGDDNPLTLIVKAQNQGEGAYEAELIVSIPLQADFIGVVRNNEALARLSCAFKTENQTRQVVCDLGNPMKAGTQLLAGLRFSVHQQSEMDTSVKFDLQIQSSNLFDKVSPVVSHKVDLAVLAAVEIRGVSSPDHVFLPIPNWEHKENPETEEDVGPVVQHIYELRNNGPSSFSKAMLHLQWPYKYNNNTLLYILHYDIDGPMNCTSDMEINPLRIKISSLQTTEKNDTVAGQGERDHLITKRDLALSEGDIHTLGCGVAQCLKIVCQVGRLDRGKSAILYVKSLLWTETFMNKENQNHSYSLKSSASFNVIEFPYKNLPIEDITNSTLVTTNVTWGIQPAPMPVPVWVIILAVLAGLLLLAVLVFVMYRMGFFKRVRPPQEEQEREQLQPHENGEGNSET
T2 sequence (P18084 24-799 limits assumed, chain 2 of 2): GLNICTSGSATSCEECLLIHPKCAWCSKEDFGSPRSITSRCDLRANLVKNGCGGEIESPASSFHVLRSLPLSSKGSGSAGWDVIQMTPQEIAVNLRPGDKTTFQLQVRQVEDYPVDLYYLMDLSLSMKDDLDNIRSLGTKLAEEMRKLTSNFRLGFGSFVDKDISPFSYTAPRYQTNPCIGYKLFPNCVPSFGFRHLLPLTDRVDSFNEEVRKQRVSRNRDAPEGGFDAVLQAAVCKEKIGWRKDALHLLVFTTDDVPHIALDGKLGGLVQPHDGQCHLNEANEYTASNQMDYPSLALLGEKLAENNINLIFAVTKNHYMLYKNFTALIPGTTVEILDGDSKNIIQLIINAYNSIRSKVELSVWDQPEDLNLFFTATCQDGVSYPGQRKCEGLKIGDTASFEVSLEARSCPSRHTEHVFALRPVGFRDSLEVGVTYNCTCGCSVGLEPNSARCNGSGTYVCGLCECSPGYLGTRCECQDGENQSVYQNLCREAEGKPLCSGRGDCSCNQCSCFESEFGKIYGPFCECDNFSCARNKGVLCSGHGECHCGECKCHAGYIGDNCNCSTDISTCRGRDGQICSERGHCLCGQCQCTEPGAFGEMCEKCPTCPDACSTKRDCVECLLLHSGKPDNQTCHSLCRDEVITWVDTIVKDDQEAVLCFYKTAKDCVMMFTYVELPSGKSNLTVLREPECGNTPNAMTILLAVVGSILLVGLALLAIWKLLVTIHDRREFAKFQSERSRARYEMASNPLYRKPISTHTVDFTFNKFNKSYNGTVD

B1: VH2/VL2 Fab fragment (Fab, V domains shown)
VH: EVQVVQSGGGLVKPGESLRLSCAASGYTFTSYWMHWVKQAPGKGLEWVGAIYPGNSDTSYNQKFKGKFTISADTSSNTAYLQMNSLKTEDTAVYYCTTTTYGYDWFAYWGQGTLVTVSS
VL: NIQMTQSPSSLSASVGDRVTMSCKSSQSVLYSSNQKNYLAWYQQKPGKSPKLLIYWASTRESGVPDRFTGSGSGTDFTLTISSLQPEDFATYYCHQYLSSLTFGQGTKLEIK
notes: also called H2/L2 (Fab source); H2L2 hIgG1 Fab
As a reminder, the IC50 is the concentration at which inhibition is half-maximal. B1: in assay [1], the “Fold change (IC50 against mouse chimeric ALULA)” value (from here on “Fold change”) worked out at 1.5 fold and the IC50 was 7.3 nM.

B2: VH5/VL2 Agly-hIgG1(T299A) (antibody, V domains shown)
VH: EVQVQQSGGGLVKPGGSLRLSCKASGYTFTSYWMHWVKQAPGKGLEWVGAIYPGNSDTSYNQKFKGKATLSAVTSPNTAYLQMNSLKTEDTAVYYCTTTTYGYDWFAYWGQGTLVTVSS
VL: NIQMTQSPSSLSASVGDRVTMSCKSSQSVLYSSNQKNYLAWYQQKPGKSPKLLIYWASTRESGVPDRFTGSGSGTDFTLTISSLQPEDFATYYCHQYLSSLTFGQGTKLEIK
notes: also called H5/L2 (Agly-IgG1)
As a reminder, the EC50 is the concentration that produces a half-maximal response. For the molecule B2, the entries for the “VN adhesion inhibition, αvβ5-BaF3 (IC50, nM)” value (“VN adhesion inhibition” below) in assay [2] and in assay [6] were 0.9 nM and 83.2 nM, respectively. Further, the results for the half-maximal inhibitory concentration (IC50) in assay [3] and in assay [5] were 1.3 nM and 2 nM, respectively. The concentration for a half-maximal effect (EC50) in assay [4] was found to be 0.4 nM; in assay [7], 359 nM.

B3: VH5/VL2 Fab fragment (Fab, V domains shown)
VH: EVQVQQSGGGLVKPGGSLRLSCKASGYTFTSYWMHWVKQAPGKGLEWVGAIYPGNSDTSYNQKFKGKATLSAVTSPNTAYLQMNSLKTEDTAVYYCTTTTYGYDWFAYWGQGTLVTVSS
VL: NIQMTQSPSSLSASVGDRVTMSCKSSQSVLYSSNQKNYLAWYQQKPGKSPKLLIYWASTRESGVPDRFTGSGSGTDFTLTISSLQPEDFATYYCHQYLSSLTFGQGTKLEIK
notes: also called H5/L2 (Fab source); H5L2 hIgG1 Fab
In the case of B3, in assay [1], the “Fold change” value was determined as 1.4 fold and the concentration for half-maximal inhibition (IC50) turned out to be 6.8 nM.

B4: VH4/VL0 Fab fragment (Fab, V domains shown)
VH: EVQVVQSGGGLVKPGESLRLSCKASGYTFTSYWMHWVKQAPGKGLEWVGAIYPGNSDTSYNQKFKGKFTISADTSPNTAYLQMNSLKTEDTAVYYCTTTTYGYDWFAYWGQGTLVTVSS
VL: DIQMTQSPSSVSASVGDRVTITCKSSQSVLYSSNQKNYLAWYQQKPGKAPKLLIYWASTRESGVPSRFSGSGSGTDFTLTISSLQPEDFATYYCHQYLSSLTFGQGTKVEIK
notes: also called H4/L0 (Fab source); H4L0 hIgG1 Fab
Take B4: in assay [1], the “Fold change” value was determined as 1.6 fold and the IC50 came out at 7.5 nM.

B5: VH5/VL0 Agly-hIgG1(T299A) (antibody, V domains shown)
VH: EVQVQQSGGGLVKPGGSLRLSCKASGYTFTSYWMHWVKQAPGKGLEWVGAIYPGNSDTSYNQKFKGKATLSAVTSPNTAYLQMNSLKTEDTAVYYCTTTTYGYDWFAYWGQGTLVTVSS
VL: DIQMTQSPSSVSASVGDRVTITCKSSQSVLYSSNQKNYLAWYQQKPGKAPKLLIYWASTRESGVPSRFSGSGSGTDFTLTISSLQPEDFATYYCHQYLSSLTFGQGTKVEIK
notes: also called H5/L0
On to B5, for which the “VN adhesion inhibition” value in assay [2] is 1 nM; in assay [6] it was 218 nM. In addition, the IC50 was 3.1 nM in assay [3] and 2.8 nM in assay [5]. The EC50 worked out at 0.4 nM in assay [4] and 244 nM in assay [7].

B6: VH5/VL1 Agly-hIgG1(T299A) (antibody, V domains shown)
VH: EVQVQQSGGGLVKPGGSLRLSCKASGYTFTSYWMHWVKQAPGKGLEWVGAIYPGNSDTSYNQKFKGKATLSAVTSPNTAYLQMNSLKTEDTAVYYCTTTTYGYDWFAYWGQGTLVTVSS
VL: DIQMTQSPSSLSASVGDRVTMTCKSSQSVLYSSNQKNYLAWYQQKPGKAPKLLIYWASTRESGVPDRFSGSGSGTDFTLTISSLQPEDFATYYCHQYLSSLTFGQGTKLEIK
notes: also called H5/L1
B6: the “VN adhesion inhibition” value in assay [2] was determined as 0.7 nM; in assay [6], 163 nM. The half-maximal inhibitory concentration (IC50) stood at 1.3 nM in assay [3] and 3 nM in assay [5]. Further, the concentration for a half-maximal effect (EC50) in assay [4] was determined as 0.3 nM; in assay [7], 147 nM.

B7: Mouse chimeric ALULA Fab fragment (Fab, V domains shown)
VH: EVQVQQSGTVLARPGASVKMSCKASGYTFTSYWMHWVKQRPGQGLEWIGAIYPGNSDTSYNQKFKGKAKLTAVTSPNTAYMELSSLTNEDSAVYYCTTTTYGYDWFAYWGQGTLVTVSA
VL: NIMMTQSPSSLTVSAGEKVTMSCKSSQSVLYSSNQKNYLAWYQQKPGQSPKLLIYWASTRESGVPDRFTGSGSGTDFTLTISSVQAEDLAVYYCHQYLSSLTFGAGTKLELK
notes: also called Mouse chimeric ALULA (Fab source)
Consider B7, for which, in assay [1], the half-inhibitory concentration (IC50) turned out to be 4.8 nM.
